This note sets out measurements from PMC2114114.

For this assay, the target named is Rat secretory component (rat (endogenous in rat liver)) (UniProt P15083). The assay is described as follows: co-IP.
UniProt P15083, sequence (P15083 19-611): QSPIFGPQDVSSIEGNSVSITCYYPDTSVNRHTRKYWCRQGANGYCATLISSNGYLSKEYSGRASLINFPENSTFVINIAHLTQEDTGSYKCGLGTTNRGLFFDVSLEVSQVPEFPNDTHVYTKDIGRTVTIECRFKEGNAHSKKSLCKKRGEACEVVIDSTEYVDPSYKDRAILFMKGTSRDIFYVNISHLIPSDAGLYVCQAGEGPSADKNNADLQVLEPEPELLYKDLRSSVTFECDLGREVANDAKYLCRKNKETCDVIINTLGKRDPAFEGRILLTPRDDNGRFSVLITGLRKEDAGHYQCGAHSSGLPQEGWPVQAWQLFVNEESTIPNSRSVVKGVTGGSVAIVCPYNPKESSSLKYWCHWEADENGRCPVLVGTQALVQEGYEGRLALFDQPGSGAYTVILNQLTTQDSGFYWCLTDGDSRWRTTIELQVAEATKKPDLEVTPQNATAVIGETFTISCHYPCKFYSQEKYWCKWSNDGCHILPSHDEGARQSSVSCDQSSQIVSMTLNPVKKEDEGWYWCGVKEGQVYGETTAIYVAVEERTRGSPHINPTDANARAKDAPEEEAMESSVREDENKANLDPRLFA

In turn, “Human monoclonal polymeric IgA (IgA1 myeloma protein) (from UniProt P01591 23-159) (antibody)” came in with a percent bound to anti-rat SC immunoadsorbent of 92.4%.
